Assay results: the supplement of paper PMC9112550, “Optimization of the antimicrobial peptide Bac7 by deep mutational scanning” (BMC Biology, 2022)

System: Escherichia coli TOP10
Experiment: shrunken log2 fold change of peptide-encoding DNA abundance (4.5 h post-induction vs induction); higher = less antimicrobial activity (less host growth inhibition)
Settings: time post-induction: 4.5 h; library: site-saturation at positions 5, 18, 19, 20
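Note: peptides expressed intracellularly from a pBAD plasmid library in pooled LB shake-flask culture, induced with 0.3% L-arabinose, DNA abundance read by NGS, three biological replicates, DESeq2 with apeglm shrinkage.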

Sequence	shrunken log2 fold change
RRIRGRPPRLPRPRPRPLPTPRP	1.14
RRIRLRPPRLPRPRPRPGLRPRP	0.234
RRIRARPPRLPRPRPRPHIPPRP	-0.671
RRIRSRPPRLPRPRPRPVGSPRP	0.304
RRIRQRPPRLPRPRPRPMQCPRP	-0.409
RRIRYRPPRLPRPRPRPYLMPRP	-0.254
RRIRHRPPRLPRPRPRPPIFPRP	-0.163
RRIRIRPPRLPRPRPRPASEPRP	0.149
RRIRLRPPRLPRPRPRPHQPPRP	0.18
RRIRWRPPRLPRPRPRPAEHPRP	-0.0393
RRIRSRPPRLPRPRPRPGWMPRP	-0.0141
RRIRGRPPRLPRPRPRPSYQPRP	-0.0215
RRIRNRPPRLPRPRPRPCEGPRP	0.111
RRIRGRPPRLPRPRPRPMTGPRP	0.427
RRIRTRPPRLPRPRPRPQCGPRP	-0.0173
RRIRSRPPRLPRPRPRPAYIPRP	-0.0884
RRIRARPPRLPRPRPRPMDYPRP	-0.407
RRIRTRPPRLPRPRPRPYWNPRP	-0.343
RRIRSRPPRLPRPRPRPFPFPRP	-0.187
RRIRIRPPRLPRPRPRPKDQPRP	-0.196
RRIRRRPPRLPRPRPRPIVMPRP	-0.0167
RRIRNRPPRLPRPRPRPHFNPRP	-0.608
RRIRVRPPRLPRPRPRPNDPPRP	-0.0659

Sequence	shrunken log2 fold change
RRIRGRPPRLPRPRPRPESVPRP	1.42
RRIRDRPPRLPRPRPRPNRSPRP	0.0428
RRIRIRPPRLPRPRPRPVFNPRP	-0.602
RRIRPRPPRLPRPRPRPIERPRP	0.157
RRIRNRPPRLPRPRPRPSWQPRP	-0.0148
RRIRLRPPRLPRPRPRPPRKPRP	0.659
RRIRQRPPRLPRPRPRPSAIPRP	-0.399
RRIRYRPPRLPRPRPRPGVRPRP	0.0103
RRIRPRPPRLPRPRPRPHCPPRP	0.0157
RRIRKRPPRLPRPRPRPYIPPRP	-0.651
RRIRMRPPRLPRPRPRPPYQPRP	0.0406
RRIRHRPPRLPRPRPRPIREPRP	-0.00145
RRIRCRPPRLPRPRPRPPANPRP	0.521
RRIRARPPRLPRPRPRPQNLPRP	-0.564
RRIRVRPPRLPRPRPRPVAWPRP	0.421
RRIRMRPPRLPRPRPRPDKNPRP	0.373
RRIRFRPPRLPRPRPRPQICPRP	-0.135
RRIRYRPPRLPRPRPRPYISPRP	-0.00213
RRIRNRPPRLPRPRPRPWGDPRP	-0.0233
RRIRTRPPRLPRPRPRPTEHPRP	-0.106
RRIRVRPPRLPRPRPRPWVEPRP	-0.0944
RRIRIRPPRLPRPRPRPVETPRP	0.156
RRIRGRPPRLPRPRPRPVDYPRP	-0.0159

Sequence	shrunken log2 fold change
RRIRNRPPRLPRPRPRPWDYPRP	-0.0686
RRIRDRPPRLPRPRPRPNIHPRP	-0.214
RRIRGRPPRLPRPRPRPLLKPRP	1.39
RRIRCRPPRLPRPRPRPPACPRP	0.479
RRIRIRPPRLPRPRPRPCETPRP	0.105
RRIRIRPPRLPRPRPRPMPVPRP	-0.244
RRIRFRPPRLPRPRPRPWPPPRP	1.11
RRIRDRPPRLPRPRPRPPLLPRP	0.252
RRIRMRPPRLPRPRPRPYQFPRP	-0.125
RRIRKRPPRLPRPRPRPNNFPRP	-0.0233
RRIRMRPPRLPRPRPRPVILPRP	-0.826
RRIRNRPPRLPRPRPRPFSFPRP	-0.186
RRIRIRPPRLPRPRPRPAPIPRP	-0.0266
RRIRDRPPRLPRPRPRPPDLPRP	0.201
RRIRARPPRLPRPRPRPGLPPRP	0.709
RRIRMRPPRLPRPRPRPNVMPRP	-0.108
RRIRIRPPRLPRPRPRPKWDPRP	-0.13
RRIRARPPRLPRPRPRPALQPRP	0.354
RRIRRRPPRLPRPRPRPAQDPRP	0.349
RRIRDRPPRLPRPRPRPTKIPRP	0.0599
RRIRYRPPRLPRPRPRPLPLPRP	-0.197
RRIRIRPPRLPRPRPRPSHFPRP	-0.641
RRIRERPPRLPRPRPRPHGMPRP	0.0601

Sequence	shrunken log2 fold change
RRIRPRPPRLPRPRPRPKYPPRP	-0.672
RRIRYRPPRLPRPRPRPIFVPRP	-0.418
RRIRHRPPRLPRPRPRPGCFPRP	-0.181
RRIRNRPPRLPRPRPRPRLHPRP	0.0921
RRIRNRPPRLPRPRPRPMEQPRP	-0.208
RRIRHRPPRLPRPRPRPRSMPRP	-0.241
RRIRLRPPRLPRPRPRPSNPPRP	-0.86
RRIRNRPPRLPRPRPRPHMKPRP	-0.243
RRIRARPPRLPRPRPRPGHTPRP	0.129
RRIRLRPPRLPRPRPRPDHRPRP	-0.041
RRIRKRPPRLPRPRPRPSMGPRP	-0.267
RRIRRRPPRLPRPRPRPKAYPRP	0.224
RRIRRRPPRLPRPRPRPYRIPRP	-0.594
RRIRLRPPRLPRPRPRPVMIPRP	-0.269
RRIRVRPPRLPRPRPRPEHCPRP	0.404
RRIRKRPPRLPRPRPRPHTYPRP	-0.101
RRIRPRPPRLPRPRPRPHKGPRP	0.0224
RRIRERPPRLPRPRPRPFPSPRP	-0.0393
RRIRTRPPRLPRPRPRPEKTPRP	0.051
RRIRCRPPRLPRPRPRPDCAPRP	0.515
RRIRYRPPRLPRPRPRPGFRPRP	-0.322
RRIRARPPRLPRPRPRPHPWPRP	-0.00896
